Data as given in IntAct's records for PubMed 17959776.

B1: Nitrogen regulatory protein P-II (Synechococcus elongatus (strain PCC 7942)), P0A3F4 (parent)
chain: MKKIEAIIRPFKLDEVKIALVNAGIVGMTVSEVRGFGRQKGQTERYRGSEYTVEFLQKLKLEIVVEDAQVDTVIDKIVAAARTGEIGDGKIFVSPVDQTIRIRTGEKNADAI
partner: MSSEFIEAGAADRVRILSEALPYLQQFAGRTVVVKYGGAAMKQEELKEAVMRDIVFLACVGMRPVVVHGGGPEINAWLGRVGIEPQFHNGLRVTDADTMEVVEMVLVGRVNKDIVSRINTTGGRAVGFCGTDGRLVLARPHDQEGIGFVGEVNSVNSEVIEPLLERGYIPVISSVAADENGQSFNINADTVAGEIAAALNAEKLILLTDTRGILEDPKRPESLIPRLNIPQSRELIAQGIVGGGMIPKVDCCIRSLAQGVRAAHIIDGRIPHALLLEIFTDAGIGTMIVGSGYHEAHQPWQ
B2: Acetylglutamate kinase (Synechococcus elongatus (strain PCC 7942)), Q6V1L5 (parent)
chain: B1 partner

Variants of: B1
Conditions: with argb_syne7 argB, Q6V1L5

Variant	effect of a mutation on the interaction
E85A	disrupting interaction
R45A	disrupting interaction
S49E	disrupting interaction strength
S49D	disrupting interaction strength
S49A	disrupting interaction strength
R47A	disrupting interaction
F11A	disrupting interaction
Y46A	disrupting interaction

Variants of: B1
Conditions: with argb_syne7 argB

Variant	effect of a mutation on the interaction
S49D	disrupting interaction

Variants of: B2
Conditions: with glnb_syne7 glnB, P0A3F4

Variant	effect of a mutation on the interaction
MSSEFIEAGAADRVRILSEALPYLQQFAGRTVVVKYGGAAMKQEELKEAVMRDIVFLACVGMRPVVVHGGGPEINAWLGRVGIEPQFHNGLRVTDADTMEVVEMVLVGRVNKDIVSRINTTGGRAVGFCGTDGRLVLARPHDQEGIGFVGEVNSVNSEVIEPLLERGYIPVISSVAADENGQSFNINADTVAGEIAAALNAEKLILLTDTRGILEDPKRPESLIPRLNIPQSRELIAQGIVGGGMIPKVDCCIRSLAAGVRAAHIIDGRIPHALLLEIFTDAGIGTMIVGSGYHEAHQPWQ [Q258A]	disrupting interaction
MSSEFIEAGAADRVRILSEALPYLQQFAGRTVVVKYGGAAMKQEELKEAVMRDIVFLACVGMRPVVVHGGGPEINAWLGRVGIEPQFHNGLRVTDADTMEVVEMVLVGRVNKDIVSRINTTGGRAVGFCGTDGRLVLARPHDQEGIGFVGEVNSVNSEVIEPLLERGYIPVISSVAADENGQSFNINADTVAGEIAAALNAEKLILLTDTRGILEDPKRPESLIPRLNIPQSRELIAQGIVGGGMIPKVDCCIASLAQGVRAAHIIDGRIPHALLLEIFTDAGIGTMIVGSGYHEAHQPWQ [R254A]	disrupting interaction
MSSEFIEAGAADRVRILSEALPYLQQFAGRTVVVKYGGAAMKQEELKEAVMRDIVFLACVGMRPVVVHGGGPEINAWLGRVGIEPQFHNGLRVTDADTMEVVEMVLVGRVNKDIVSRINTTGGRAVGFCGTDGRLVLARPHDQEGIGFVGEVNSVNSEVIEPLLERGYIPVISSVAADENGQSFNINADTVAGEIAAALNAEKLILLTDTRGILEDPKRPESLIPRLNIPQSAELIAQGIVGGGMIPKVDCCIRSLAQGVRAAHIIDGRIPHALLLEIFTDAGIGTMIVGSGYHEAHQPWQ [R233A]	disrupting interaction
MSSEFIEAGAADRVRILSEALPYLQQFAGRTVVVKYGGAAMKQEELKEAVMRDIVFLACVGMRPVVVHGGGPEINAWLGRVGIEPQFHNGLRVTDADTMEVVEMVLVGRVNKDIVSRINTTGGRAVGFCGTDGRLVLARPHDQEGIGFVGEVNSVNSEVIEPLLERGYIPVISSVAADENGQSFNINADTVAGEIAAALNAEKLILLTDTRGILEDPKRPESLIPRLNIPQSRELIAQGIVGGGMIPKVDCCIRSAAQGVRAAHIIDGRIPHALLLEIFTDAGIGTMIVGSGYHEAHQPWQ [L256A]	disrupting interaction
MSSEFIEAGAADRVRILSEALPYLQQFAGRTVVVKYGGAAMKQEELKEAVMRDIVFLACVGMRPVVVHGGGPEINAWLGRVGIEPQFHNGLRVTDADTMEVVEMVLVGRVNKDIVSRINTTGGRAVGFCGTDGRLVLAAPHDQEGIGFVGEVNSVNSEVIEPLLERGYIPVISSVAADENGQSFNINADTVAGEIAAALNAEKLILLTDTRGILEDPKRPESLIPRLNIPQSRELIAQGIVGGGMIPKVDCCIRSLAQGVRAAHIIDGRIPHALLLEIFTDAGIGTMIVGSGYHEAHQPWQ [R139A]	disrupting interaction
MSSEFIEAGAADRVRILSEALPYLQQFAGRTVVVKYGGAAMKQEELKEAVMRDIVFLACVGMRPVVVHGGGPEINAWLGRVGIEPQFHNGLRVTDADTMEVVEMVLVGRVNKDIVSRINTTGGRAVGFCGTDGRLVLARPHDQEGIGFVGEVNSVNSEVIEPLLERGYIPVISSVAADENGQSFNINADTVAGEIAAALNAEKLILLTDTRGILEDPKRPESLIPRLNAPQSRELIAQGIVGGGMIPKVDCCIRSLAQGVRAAHIIDGRIPHALLLEIFTDAGIGTMIVGSGYHEAHQPWQ [I229A]	disrupting interaction
